Assay [1] deals with human NRP1 protein (human) (UniProt O14786). Nature of the assay: SPR, Biacore T100. On the technique in general: In SPR one partner is held on a chip, and binding of the other changes the refractive index at the surface.
Assay [2] deals with NRP1 expressed on the surface of cancer cells (NRP1-overexpressing patient-derived cells; U87MG glioblastoma cell line) (human) (UniProt O14786). In words: cell-based or functional assay.

One may read the Kd as the constant that tells how readily two partners part at equilibrium. Low readings indicate higher affinity, high ones lower affinity.

NRP1 expressed on the surface of cancer cells (NRP1-overexpressing patient-derived cells; U87MG glioblastoma cell line) (human), sequence (O14786 22-923): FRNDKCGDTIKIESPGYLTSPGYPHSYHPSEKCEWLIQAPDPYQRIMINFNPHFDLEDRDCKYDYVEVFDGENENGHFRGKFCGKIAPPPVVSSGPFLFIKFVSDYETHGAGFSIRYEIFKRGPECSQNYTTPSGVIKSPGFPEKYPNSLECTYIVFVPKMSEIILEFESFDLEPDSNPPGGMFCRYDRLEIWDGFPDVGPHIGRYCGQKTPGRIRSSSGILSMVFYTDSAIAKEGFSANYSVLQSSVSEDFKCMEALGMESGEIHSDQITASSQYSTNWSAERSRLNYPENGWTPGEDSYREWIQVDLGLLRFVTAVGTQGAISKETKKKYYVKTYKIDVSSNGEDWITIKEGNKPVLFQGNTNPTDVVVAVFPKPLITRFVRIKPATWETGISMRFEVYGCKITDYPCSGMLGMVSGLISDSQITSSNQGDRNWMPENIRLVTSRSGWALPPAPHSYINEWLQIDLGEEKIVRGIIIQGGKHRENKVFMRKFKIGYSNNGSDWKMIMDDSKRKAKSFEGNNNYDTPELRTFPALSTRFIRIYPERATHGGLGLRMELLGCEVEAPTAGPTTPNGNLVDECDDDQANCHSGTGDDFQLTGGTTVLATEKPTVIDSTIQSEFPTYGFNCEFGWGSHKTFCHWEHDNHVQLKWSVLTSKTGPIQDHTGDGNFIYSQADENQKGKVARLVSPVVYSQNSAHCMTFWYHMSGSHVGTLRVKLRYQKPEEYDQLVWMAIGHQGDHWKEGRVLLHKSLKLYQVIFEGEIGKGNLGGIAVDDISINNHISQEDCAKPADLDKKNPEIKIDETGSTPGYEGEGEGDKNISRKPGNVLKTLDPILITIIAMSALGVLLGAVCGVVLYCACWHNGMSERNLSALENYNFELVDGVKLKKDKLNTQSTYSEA
human NRP1 protein (human), sequence (O14786 other isoform, or with tags, fused parts or gaps limits assumed): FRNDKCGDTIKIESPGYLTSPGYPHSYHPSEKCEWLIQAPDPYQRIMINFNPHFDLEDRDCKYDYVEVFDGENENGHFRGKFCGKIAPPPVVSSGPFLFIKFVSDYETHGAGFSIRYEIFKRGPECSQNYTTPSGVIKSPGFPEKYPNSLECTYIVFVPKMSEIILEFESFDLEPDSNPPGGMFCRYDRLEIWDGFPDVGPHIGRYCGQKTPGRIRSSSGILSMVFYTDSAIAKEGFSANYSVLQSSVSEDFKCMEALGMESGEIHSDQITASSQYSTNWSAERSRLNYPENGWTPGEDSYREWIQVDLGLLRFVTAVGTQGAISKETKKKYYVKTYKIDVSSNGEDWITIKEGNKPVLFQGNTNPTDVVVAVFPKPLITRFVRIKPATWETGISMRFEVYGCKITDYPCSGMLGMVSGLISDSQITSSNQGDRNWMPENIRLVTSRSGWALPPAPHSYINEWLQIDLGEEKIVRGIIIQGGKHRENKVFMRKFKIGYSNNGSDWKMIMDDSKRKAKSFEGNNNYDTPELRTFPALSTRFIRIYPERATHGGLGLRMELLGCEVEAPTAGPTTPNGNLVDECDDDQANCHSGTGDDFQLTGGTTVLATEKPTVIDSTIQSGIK

B1: 1A03 scFv antibody fragment (scFv, part only; not given: linker, domain order, His and HA tags, V domains shown, not shown: another chain or arm of the molecule; large carriers; small tags and cut ends)
VH: EVQLLESGGGLVQPGGSLRLSCAASGFTFSSYYMSWVRQAPGKGLEWVSAISPGSSNKYYADSVQGRFTISRDNSKNTLYLQMNSLRAEDTAVYYCARRKKSFDYWGQGTLVTVSS
VL: QSVLTQPPSASGTPGQRVTISCSGPSSNIGNNDVSWYQQLPGTAPKLLIYSDNNRPSGVPDRFSGSKSGTSASLAISGLRSEDEADYYCGAWVASLSAYVFGGGTKLTVL
The molecule B1 displayed a Kd in assay [1] of 89.4 nM. In assay [2], this molecule gave a cell migration of U87MG cells (transwell), untreated control = 100% of 41%.

B2: 3H10 scFv antibody fragment (scFv, part only; not given: linker, domain order, His and HA tags, V domains shown, not shown: another chain or arm of the molecule; large carriers; small tags and cut ends)
VH: EVQLLESGGGLVQPGGSLRLSCAASGFTFSSYYMSWVRQAPGKGLEWVSAISPGSSNKYYADSVKGRFTISRDNSKNTLYLQMNSLRAEDTAVYYCARRKYMFDYWGQGTLVTVSS
VL: QSVLTQPPSASGTPGQRVTISCTGSSSNIGNNDVYWYQQLPGTAPKLLIYSDSNRPSGVPDRFSGSKSGTSASLAISGLRSEDEADYYCASWDSSLSGYVFGGGTKLTVL
For B2, in assay [1], the Kd came to 295 nM. In addition, the cell migration of U87MG cells (transwell), untreated control = 100% in assay [2] came to 46%.

The values are drawn from patent publication US20170291948A1.
